Assay results reported in patent US20180355043A1.

Key:
Assay in all cases: MSD ECL; antigen coated; protocol of Example 3
[1] = molecular target: DR4G107 (HLA DPB4:01, peptide CLIP) (human)
[2] = molecular target: DR4G110: Human HLA-DRA1*01:02/DRB1*04:01 ECD with aggrecan peptide N1 (human)
[3] = molecular target: DR4G142: Human HLA-DRA1*01:02/DRB1*03:01 ECD_VimentineL70A (human)
[4] = molecular target: DR4G86: Human HLA-DRA1*01:02/DRB1*04:01 ECD with CLIP peptide (human)
[5] = molecular target: DR4G99: Human HLA-DRA1*01:02/DRB1*01:01 ECD with collagen peptide CII_1236-1249 (human)
[6] = molecular target: DR4G92: Human HLA-DRA1*01:02/DRB1*04:01 ECD with collagen II peptide CII_257-273 (human)
[7] = molecular target: DR4G97: Human HLA-DRA1*01:02/DRB1*15:01 ECD with collagen II peptide CII_1236-1249 (human)
[8] = molecular target: DR4G143: Human HLA-DRA1*01:02/DRB1*04:01 ECD_VimentineL70A (human)
[9] = molecular target: DR4G146 (HLA DQB2:01, peptide CLIP) (human)
[10] = molecular target: DR4G101: Human HLA-DRA1*01:02/DRB1*04:02 ECD with collagen II peptide CII_257-273 (human)
[11] = molecular target: DR4G145 (HLA DQB2:01, peptide CLIP) (human)
[12] = molecular target: DR4G102: Human HLA-DRA1*01:02/DRB1*01:01 ECD with collagen II peptide CII_257-273 (human)
[13] = molecular target: DR4G115 (HLA DPB4:01, peptide LCAP) (human)
Chain of DR4G115 (HLA DPB4:01, peptide LCAP) (human) (P20036 29-222, chain 1 of 2): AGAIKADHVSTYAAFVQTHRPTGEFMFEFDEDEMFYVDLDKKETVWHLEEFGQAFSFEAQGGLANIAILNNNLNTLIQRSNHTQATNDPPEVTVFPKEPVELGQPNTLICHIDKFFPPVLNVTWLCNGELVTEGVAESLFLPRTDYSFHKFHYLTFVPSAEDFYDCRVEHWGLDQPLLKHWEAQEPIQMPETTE
Chain of DR4G115 (HLA DPB4:01, peptide LCAP) (human) (P04440 30-225, chain 2 of 2, further chain): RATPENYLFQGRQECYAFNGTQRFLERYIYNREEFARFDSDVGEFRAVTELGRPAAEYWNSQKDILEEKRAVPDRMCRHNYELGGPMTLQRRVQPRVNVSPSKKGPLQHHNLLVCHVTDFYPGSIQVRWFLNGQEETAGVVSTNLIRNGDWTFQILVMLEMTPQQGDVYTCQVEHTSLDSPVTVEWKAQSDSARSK

[14] = molecular target: DR4G96: Human HLA-DRA1*01:02/DRB1*01:01 ECD with CLIP peptide (human)
[15] = molecular target: DR4G117: Human HLA-DRA1*01:02/DRB1*03:01 ECD with Collagen II peptide CII_1236-1249 (human)
[16] = molecular target: DR4G98: Human HLA-DRA1*01:02/DRB1*04:02 ECD with collagen II peptide CII_1236-1249 (human)
[17] = molecular target: DR4G112: Human HLA-DQA1*01:02/DQB1*06:02 ECD with PLP peptide PLP_178-186 (human)

In the case of Isotype control (antibody), the ECL signal [1] is reported as 153 ECL, the ECL signal [2] is reported as 1030 ECL and the ECL signal [3] is reported as 2220 ECL. It also gave an ECL signal [4] of 335 ECL, an ECL signal [5] of 490 ECL and an ECL signal [6] of 486 ECL. It also gave an ECL signal [7] of 393 ECL, an ECL signal [8] of 410 ECL and an ECL signal [9] of 1470 ECL. The ECL signal [10] was 1250 ECL, the ECL signal [11] was 2780 ECL and the ECL signal [12] was 392 ECL. The ECL signal [13] was 91 ECL, the ECL signal [14] was 781 ECL and the ECL signal [15] was 603 ECL. For the same substance, the ECL signal [16] was 613 ECL and the ECL signal [17] was 250 ECL.
